Assay results as given in PMC10992476, “Efficient production of salvianic acid A from L-dihydroxyphenylalanine through a tri-enzyme cascade” (Bioresources and Bioprocessing, 2023).

B1: LaPPR (Lactobacillus sp. CGMCC 9967) (protein)
chain: MMKILNSFSLKPEQRQTLEAAGHTVIDADKLDDATAQQIDVVYGWNAAATRVNFDRLQFVQAMSAGVDYLPLAELAKHHVLLANTSGIHAEPIAEYVLGALFTISRGILPAIRADRDMWTLRQERPPMTLLKGKTAVIFGTGHIGSTIATKLQALGLHTIGVSAHGRPAAGFDQVMTDVATHEAAGRADVVINALPLTPDTKHFYDEAFFAAASKQPLFINIGRGPSVDMAALTQALKNKQISAAALDVVDPEPLPQDSPLWGMTNVLLTPHISGTVPQLRDKVFKIFNDNLKTLISSGQLASHQVDLTRGY
notes: homodimer
B2: LaPPR (Lactobacillus sp. CGMCC 9967; H143D/H89M/P256C) (protein)
chain: MMKILNSFSLKPEQRQTLEAAGHTVIDADKLDDATAQQIDVVYGWNAAATRVNFDRLQFVQAMSAGVDYLPLAELAKHHVLLANTSGIMAEPIAEYVLGALFTISRGILPAIRADRDMWTLRQERPPMTLLKGKTAVIFGTGDIGSTIATKLQALGLHTIGVSAHGRPAAGFDQVMTDVATHEAAGRADVVINALPLTPDTKHFYDEAFFAAASKQPLFINIGRGPSVDMAALTQALKNKQISAAALDVVDPEPLCQDSPLWGMTNVLLTPHISGTVPQLRDKVFKIFNDNLKTLISSGQLASHQVDLTRGY
notes: homodimer
B3: LaPPR (Lactobacillus sp. CGMCC 9967; H143D) (protein)
chain: MMKILNSFSLKPEQRQTLEAAGHTVIDADKLDDATAQQIDVVYGWNAAATRVNFDRLQFVQAMSAGVDYLPLAELAKHHVLLANTSGIHAEPIAEYVLGALFTISRGILPAIRADRDMWTLRQERPPMTLLKGKTAVIFGTGDIGSTIATKLQALGLHTIGVSAHGRPAAGFDQVMTDVATHEAAGRADVVINALPLTPDTKHFYDEAFFAAASKQPLFINIGRGPSVDMAALTQALKNKQISAAALDVVDPEPLPQDSPLWGMTNVLLTPHISGTVPQLRDKVFKIFNDNLKTLISSGQLASHQVDLTRGY
notes: homodimer
B4: LaPPR (Lactobacillus sp. CGMCC 9967; H143D/H89M) (protein)
chain: MMKILNSFSLKPEQRQTLEAAGHTVIDADKLDDATAQQIDVVYGWNAAATRVNFDRLQFVQAMSAGVDYLPLAELAKHHVLLANTSGIMAEPIAEYVLGALFTISRGILPAIRADRDMWTLRQERPPMTLLKGKTAVIFGTGDIGSTIATKLQALGLHTIGVSAHGRPAAGFDQVMTDVATHEAAGRADVVINALPLTPDTKHFYDEAFFAAASKQPLFINIGRGPSVDMAALTQALKNKQISAAALDVVDPEPLPQDSPLWGMTNVLLTPHISGTVPQLRDKVFKIFNDNLKTLISSGQLASHQVDLTRGY
notes: homodimer
B5: LaPPR (Lactobacillus sp. CGMCC 9967; H89M) (protein)
chain: MMKILNSFSLKPEQRQTLEAAGHTVIDADKLDDATAQQIDVVYGWNAAATRVNFDRLQFVQAMSAGVDYLPLAELAKHHVLLANTSGIMAEPIAEYVLGALFTISRGILPAIRADRDMWTLRQERPPMTLLKGKTAVIFGTGHIGSTIATKLQALGLHTIGVSAHGRPAAGFDQVMTDVATHEAAGRADVVINALPLTPDTKHFYDEAFFAAASKQPLFINIGRGPSVDMAALTQALKNKQISAAALDVVDPEPLPQDSPLWGMTNVLLTPHISGTVPQLRDKVFKIFNDNLKTLISSGQLASHQVDLTRGY
notes: homodimer

Biological target: phenylpyruvate reductase from Lactobacillus sp. CGMCC 9967 (LaPPR) (Lactobacillus sp. CGMCC 9967)
Experiment: crystal structure; apo-LaPPR wild type, sitting drop vapor diffusion, 20 °C, protein 28 mg/mL, 0.1 M citric acid pH 3.5, 14% w/v PEG 1000, 0.01 M beta-nicotinamide adenine dinucleotide; molecular replacement with PDB 3EVT
Conditions: not given

Molecule	stoichiometry N
phenylpyruvate reductase from Lactobacillus sp. CGMCC 9967 (LaPPR) (enzyme)	2

Substrate: O=C(O)C(=O)Cc1ccc(O)c(O)c1
Experiment: purified protein
Assay type: biochemical, Lactobacillus sp. CGMCC 9967
Conditions: 2 mM NADH, Tris-HCl 50 mM pH 7.0, 30 °C

Molecule	Km [mM]	kcat [s⁻¹]	kcat/Km [M⁻¹ s⁻¹]
B1	6.20 ± 0.15	1.21 ± 0.03	200
B2	2.52 ± 0.27	5.74 ± 0.24	2050
B3	5.03 ± 0.14	2.08 ± 0.11	410
B4	3.63 ± 0.17	2.35 ± 0.12	650
B5	5.74 ± 0.08	1.37 ± 0.06	240
